Reference: patent publication US20250298024A1

What was measured:
[1] = target: polypeptide molecule 8 (human) (UniProt P05186); test: sandwich ELISA, ALP-labeled anti-TNAP detection; calibrator C2 (35 ug/mL), run 2
[2] = target: polypeptide molecule 8 (human) (UniProt P05186); test: sandwich ELISA, ALP-labeled anti-TNAP detection; calibrator C4 (140 ug/mL), run 3
[3] = target: polypeptide molecule 8 (human) (UniProt P05186); test: sandwich ELISA, ALP-labeled anti-TNAP detection; calibrator C1 (17.5 ug/mL), run 2
[4] = target: polypeptide molecule 8 (human) (UniProt P05186); test: sandwich ELISA, ALP-labeled anti-TNAP detection; calibrator C2 (35 ug/mL), run 1
[5] = target: polypeptide molecule 8 (human) (UniProt P05186); test: sandwich ELISA, ALP-labeled anti-TNAP detection; calibrator C5 (280 ug/mL), mean of 3
[6] = target: polypeptide molecule 8 (human) (UniProt P05186); test: sandwich ELISA, ALP-labeled anti-TNAP detection; calibrator C1 (17.5 ug/mL), run 3
[7] = target: polypeptide molecule 8 (human) (UniProt P05186); test: sandwich ELISA, ALP-labeled anti-TNAP detection; calibrator C3 (70 ug/mL), run 2
[8] = target: polypeptide molecule 8 (human) (UniProt P05186); test: sandwich ELISA, ALP-labeled anti-TNAP detection; calibrator C3 (70 ug/mL), mean of 3
[9] = target: polypeptide molecule 8 (human) (UniProt P05186); test: sandwich ELISA, ALP-labeled anti-TNAP detection; calibrator C1 (17.5 ug/mL), run 1
[10] = target: polypeptide molecule 8 (human) (UniProt P05186); test: sandwich ELISA, ALP-labeled anti-TNAP detection; calibrator C5 (280 ug/mL), run 3
[11] = target: polypeptide molecule 8 (human) (UniProt P05186); test: sandwich ELISA, ALP-labeled anti-TNAP detection; calibrator C1 (17.5 ug/mL), mean of 3
[12] = target: polypeptide molecule 8 (human) (UniProt P05186); test: sandwich ELISA, ALP-labeled anti-TNAP detection; calibrator C2 (35 ug/mL), mean of 3
[13] = target: polypeptide molecule 8 (human) (UniProt P05186); test: sandwich ELISA, ALP-labeled anti-TNAP detection; calibrator C4 (140 ug/mL), run 1
[14] = target: polypeptide molecule 8 (human) (UniProt P05186); test: sandwich ELISA, ALP-labeled anti-TNAP detection; calibrator C4 (140 ug/mL), run 2
[15] = target: polypeptide molecule 8 (human) (UniProt P05186); test: sandwich ELISA, ALP-labeled anti-TNAP detection; calibrator C3 (70 ug/mL), run 1
[16] = target: polypeptide molecule 8 (human) (UniProt P05186); test: sandwich ELISA, ALP-labeled anti-TNAP detection; calibrator C2 (35 ug/mL), run 3
[17] = target: polypeptide molecule 8 (human) (UniProt P05186); test: sandwich ELISA, ALP-labeled anti-TNAP detection; calibrator C3 (70 ug/mL), run 3
[18] = target: polypeptide molecule 8 (human) (UniProt P05186); test: sandwich ELISA, ALP-labeled anti-TNAP detection; calibrator C5 (280 ug/mL), run 2
[19] = target: polypeptide molecule 8 (human) (UniProt P05186); test: sandwich ELISA, ALP-labeled anti-TNAP detection; calibrator C5 (280 ug/mL), run 1
[20] = target: polypeptide molecule 8 (human) (UniProt P05186); test: sandwich ELISA, ALP-labeled anti-TNAP detection; calibrator C4 (140 ug/mL), mean of 3
[21] = target: polypeptide molecule 7 (bovine) (UniProt P19111); test: HI-1000 capture immunoassay, ALP chemiluminescence; calibrator C5 (7.686667 ug/mL), run 2
UniProt P19111, sequence (P19111 other isoform, or with tags, fused parts or gaps limits assumed): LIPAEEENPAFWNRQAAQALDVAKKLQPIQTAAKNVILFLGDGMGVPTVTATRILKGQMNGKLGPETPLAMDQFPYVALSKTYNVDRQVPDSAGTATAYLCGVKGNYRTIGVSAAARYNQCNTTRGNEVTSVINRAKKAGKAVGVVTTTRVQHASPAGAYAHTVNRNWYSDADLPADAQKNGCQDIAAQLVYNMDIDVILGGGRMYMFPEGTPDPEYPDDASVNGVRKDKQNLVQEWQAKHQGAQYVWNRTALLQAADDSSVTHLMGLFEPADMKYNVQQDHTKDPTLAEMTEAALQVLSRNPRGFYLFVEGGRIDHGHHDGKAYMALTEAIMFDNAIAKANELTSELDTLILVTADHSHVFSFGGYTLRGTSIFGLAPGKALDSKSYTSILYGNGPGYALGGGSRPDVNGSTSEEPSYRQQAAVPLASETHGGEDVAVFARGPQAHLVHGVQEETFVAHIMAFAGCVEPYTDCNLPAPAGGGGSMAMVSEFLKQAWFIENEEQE

[22] = target: polypeptide molecule 7 (bovine) (UniProt P19111); test: HI-1000 capture immunoassay, ALP chemiluminescence; calibrator C4 (2.562222 ug/mL), run 3
[23] = target: polypeptide molecule 7 (bovine) (UniProt P19111); test: HI-1000 capture immunoassay, ALP chemiluminescence; calibrator C1 (0.0177932 ug/mL), run 3
[24] = target: polypeptide molecule 7 (bovine) (UniProt P19111); test: HI-1000 capture immunoassay, ALP chemiluminescence; calibrator C4 (2.562222 ug/mL), mean of 3
[25] = target: polypeptide molecule 7 (bovine) (UniProt P19111); test: HI-1000 capture immunoassay, ALP chemiluminescence; calibrator C1 (0.0177932 ug/mL), run 2
[26] = target: polypeptide molecule 7 (bovine) (UniProt P19111); test: HI-1000 capture immunoassay, ALP chemiluminescence; calibrator C3 (0.2846914 ug/mL), run 3
[27] = target: polypeptide molecule 7 (bovine) (UniProt P19111); test: HI-1000 capture immunoassay, ALP chemiluminescence; calibrator C2 (0.0711728 ug/mL), run 1
[28] = target: polypeptide molecule 7 (bovine) (UniProt P19111); test: HI-1000 capture immunoassay, ALP chemiluminescence; calibrator C2 (0.0711728 ug/mL), run 2
[29] = target: polypeptide molecule 7 (bovine) (UniProt P19111); test: HI-1000 capture immunoassay, ALP chemiluminescence; calibrator C5 (7.686667 ug/mL), mean of 3
[30] = target: polypeptide molecule 7 (bovine) (UniProt P19111); test: HI-1000 capture immunoassay, ALP chemiluminescence; calibrator C5 (7.686667 ug/mL), run 1
[31] = target: polypeptide molecule 7 (bovine) (UniProt P19111); test: HI-1000 capture immunoassay, ALP chemiluminescence; calibrator C3 (0.2846914 ug/mL), mean of 3
[32] = target: polypeptide molecule 7 (bovine) (UniProt P19111); test: HI-1000 capture immunoassay, ALP chemiluminescence; calibrator C4 (2.562222 ug/mL), run 2
[33] = target: polypeptide molecule 7 (bovine) (UniProt P19111); test: HI-1000 capture immunoassay, ALP chemiluminescence; calibrator C5 (7.686667 ug/mL), run 3
[34] = target: polypeptide molecule 7 (bovine) (UniProt P19111); test: HI-1000 capture immunoassay, ALP chemiluminescence; calibrator C2 (0.0711728 ug/mL), run 3
[35] = target: polypeptide molecule 7 (bovine) (UniProt P19111); test: HI-1000 capture immunoassay, ALP chemiluminescence; calibrator C1 (0.0177932 ug/mL), mean of 3
[36] = target: polypeptide molecule 7 (bovine) (UniProt P19111); test: HI-1000 capture immunoassay, ALP chemiluminescence; calibrator C1 (0.0177932 ug/mL), run 1
[37] = target: polypeptide molecule 7 (bovine) (UniProt P19111); test: HI-1000 capture immunoassay, ALP chemiluminescence; calibrator C3 (0.2846914 ug/mL), run 1
[38] = target: polypeptide molecule 7 (bovine) (UniProt P19111); test: HI-1000 capture immunoassay, ALP chemiluminescence; calibrator C2 (0.0711728 ug/mL), mean of 3
[39] = target: polypeptide molecule 7 (bovine) (UniProt P19111); test: HI-1000 capture immunoassay, ALP chemiluminescence; calibrator C3 (0.2846914 ug/mL), run 2
[40] = target: polypeptide molecule 7 (bovine) (UniProt P19111); test: HI-1000 capture immunoassay, ALP chemiluminescence; calibrator C4 (2.562222 ug/mL), run 1

UniProt P05186, sequence (P05186 other isoform, or with tags, fused parts or gaps limits assumed): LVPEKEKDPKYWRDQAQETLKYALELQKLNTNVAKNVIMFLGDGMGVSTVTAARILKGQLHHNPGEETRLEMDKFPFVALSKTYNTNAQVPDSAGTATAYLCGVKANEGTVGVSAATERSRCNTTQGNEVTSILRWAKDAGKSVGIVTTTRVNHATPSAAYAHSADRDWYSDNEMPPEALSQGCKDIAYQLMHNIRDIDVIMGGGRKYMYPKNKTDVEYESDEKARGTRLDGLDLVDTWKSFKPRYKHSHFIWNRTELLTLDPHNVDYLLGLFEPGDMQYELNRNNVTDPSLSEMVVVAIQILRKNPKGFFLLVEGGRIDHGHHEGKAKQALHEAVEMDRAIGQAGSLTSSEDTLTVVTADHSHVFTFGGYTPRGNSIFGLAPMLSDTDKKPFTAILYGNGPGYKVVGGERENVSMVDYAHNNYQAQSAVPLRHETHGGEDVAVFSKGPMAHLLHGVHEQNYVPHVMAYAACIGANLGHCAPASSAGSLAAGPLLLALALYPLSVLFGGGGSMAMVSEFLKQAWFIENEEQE

“anti-Annexin A1 antibody (Santacruz, sc-12740)” showed a relative emission intensity (RLU) [1] of 21700 RLU, a relative emission intensity (RLU) [2] of 50900 RLU and a relative emission intensity (RLU) [3] of 16400 RLU. It also gave a relative emission intensity (RLU) [4] of 21600 RLU, a relative emission intensity (RLU), AV [5] of 87600 RLU and a relative emission intensity (RLU) [6] of 17000 RLU. For the same substance, the relative emission intensity (RLU) [7] was 33200 RLU, the relative emission intensity (RLU), AV [8] was 32400 RLU and the relative emission intensity (RLU) [9] was 16500 RLU. For the same substance, the relative emission intensity (RLU) [10] was 87800 RLU, the relative emission intensity (RLU), AV [11] was 16700 RLU and the relative emission intensity (RLU), AV [12] was 22800 RLU. It also gave a relative emission intensity (RLU) [13] of 50900 RLU, a relative emission intensity (RLU) [14] of 51900 RLU and a relative emission intensity (RLU) [15] of 31900 RLU. The relative emission intensity (RLU) [16] was 25000 RLU, the relative emission intensity (RLU) [17] was 32100 RLU and the relative emission intensity (RLU) [18] was 86100 RLU. For the same substance, the relative emission intensity (RLU) [19] was 89000 RLU and the relative emission intensity (RLU), AV [20] was 51200 RLU.
Work on “biotin-labeled anti-Annexin A1 antibody (Clone: EH17a)” yielded an emission intensity (count) [21] of 460000 count, an emission intensity (count) [22] of 271000 count and an emission intensity (count) [23] of 3650 count. For the same substance, the emission intensity (count), AV [24] was 266000 count, the emission intensity (count) [25] was 3650 count and the emission intensity (count) [26] was 45800 count. It also gave an emission intensity (count) [27] of 13000 count, an emission intensity (count) [28] of 13100 count and an emission intensity (count), AV [29] of 450000 count. The emission intensity (count) [30] was 439000 count, the emission intensity (count), AV [31] was 46600 count and the emission intensity (count) [32] was 260000 count. It also gave an emission intensity (count) [33] of 452000 count, an emission intensity (count) [34] of 13000 count and an emission intensity (count), AV [35] of 3700 count. The emission intensity (count) [36] was 3800 count, the emission intensity (count) [37] was 47000 count and the emission intensity (count), AV [38] was 13000 count. It also gave an emission intensity (count) [39] of 46800 count and an emission intensity (count) [40] of 266000 count.
